Patent US12544428B2, “Controlled-release CNP agonists with reduced side-effects” (ASCENDIS PHARMA GROWTH DISORDERS A/S, priority 2016, dated 2026)
Read-outs that look alike come from different tables or passages of the source.

How the values were obtained:
[1] = 0.146 mg CNP-38 eq/kg
Procedure: (§1) Plasma total CNP-38 concentrations (conjugated and released CNP-38) were determined by quantification of the N-terminal signature peptide (sequence: […]) and C-terminal signature peptide (sequence: […]) after tryptic digestion.
(§2) LC-MS analysis was carried out by using an Agilent 1290 UPLC coupled to an Agilent 6550 iFunnel Q-TOF mass spectrometer via an ESI probe. Chromatography was performed on a Waters Acquity BEH300 C18 analytical column (50×2.1 mm I.D., 1.7 μm particle size) with pre-filter at a flow rate of 0.25 mL/min (T=25° C.). Water (UPLC grade) containing 0.2% formic acid (v/v) was used as mobile phase A and acetonitrile (UPLC grade) with 0.2% formic acid as mobile phase B. The gradient system comprised a short isocratic step at the initial parameters of 0.1% B for 3.0 min followed by a linear increase from 0.1% B to 16% B in 17 min. Mass analysis was performed in the single ion monitoring (SIM) mode, monitoring the ions m/z 482.75 [M+2H]^2+ (N-terminal) and m/z 824.36 [M+H]^1+ (C-terminal). As internal standard deuterated CNP-38 peptide was used.
(§3) Calibration standards of CNP-38 conjugate in blank plasma were prepared as follows: The thawed Li-heparin cynomolgous plasma was first homogenized, then centrifuged for 5 minutes. […] These solutions were used for the generation of a calibration curve.
(§4) For sample preparation, protein precipitation was carried out by addition of 300 μL of pre-cooled (0° C.) methanol to 100 μL of the plasma sample. 200 μL of the supernatant were transferred into a new well-plate and evaporated to dryness (under a gentle nitrogen stream at 35° C.). 100 μL of reconstitution solvent (Thermo digestion buffer, order number 60109-101, Thermo Fisher Scientific GmbH, Dreieich, Germany) were used to dissolve the residue. 20 μg of trypsin (order number V5111, Promega GmbH, Mannheim, Germany) were dissolved in 20 μL of 10 mM acetic acid. 2 μL of the trypsin solution were added to each cavity.
(§5) After 4 hours incubation at 37° C. (water bath), 5 μL of a 0.5 M TCEP solution were added to each cavity and incubated again for 5 min at 96° C. After the samples had cooled to room temperature, 3 μL acetonitrile were added. The eluates were transferred into vials. 10 μL were injected into the UPLC-MS system.
Male cynomolgus monkeys (2-4 years old, 3-5 kg) received either a single subcutaneous administration (n=3 animals) of compound 10f or a single subcutaneous (n=3 animals) administration of 11i at a dose of 0.146 mg CNP-38 eq/kg. Blood samples were collected up to 168 h post dose, and plasma was generated. Plasma levels of total CNP-38 content were analyzed as described in example 24. In order to analyze the plasma content of free CNP-38, the blood samples were acidified after withdrawal by adding 20 vol % of 0.5 M sodium citrate buffer pH 4 to stop further CNP-38 release from the conjugate. Free CNP-38 levels in plasma can e.g. be determined by ELISA using a CNP antibody that binds to the ring region of CNP, as described in the literature (U.S. Pat. No. 8,377,884 B2), or by LC-MS/MS.

[2] = 0.146 mg CNP-38 eq/kg; remark: listed apart in the source
Procedure: as §1, §2, §3, §4, §5
Blood samples were collected up to 168 h post dose, and plasma was generated. Plasma total CNP-38 concentrations were determined by quantification of the N-terminal signature peptide (sequence: […]) and C-terminal signature peptide (sequence: […]) after tryptic digestion as described in Materials and Methods.

Substance | dose site reactions ([1]; single sc) | tolerability of dose administrations ([1]; single sc) | Total CNP-38 plasma levels after 120 h ([1]; single sc, C-terminal peptide, below LOQ) [ng/mL] | total CNP-38 tmax ([1]; single subcutaneous administration) [h] | half life time of CNP-38 content ([2]; single intravenous injection, plasma total CNP-38) | CNP-38 tmax ([2]; single intravenous injection, plasma total CNP-38, earliest time point analyzed) [h] | dose site reactions ([2]; single iv or sc dose) | tolerability of dose administrations ([2]; single iv or sc dose) | CNP-38 concentration at 168 h ([2]; single subcutaneous injection) | CNP-38 tmax ([2]; single subcutaneous injection, plasma total CNP-38) [h] | bioavailability ([2]; subcutaneous vs intravenous)
Reversible Lys26 CNP-38 PEG2×20 kDa Conjugate [Compound 10f] | No dose site reactions were observed | well tolerated | < 100 | 12 | – | – | – | – | – | – | –
Permanent Lys26 CNP-38 PEG4×10 kDa Conjugate [Compound 12g] | – | – | – | – | approx. 24 h | 0.25 | No dose site reactions were observed | well tolerated | ca. 50 % of cmax | 48 | ca. 50%
